# Test results as given in publication PMC10066210, “The structural basis of the pH-homeostasis mediated by the Cl^−/HCO3^− exchanger, AE2” (Nature Communications, 2023).
# B1: human anion exchanger 2 (AE2), residues 177-1241 (natural protein, UniProt P04920 177-1241, looked up)
# chain: LPHQEATPRASKGAQAGTQVEEAEAEAVAVASGTAGGDDGGASGRPLPKAQPGHRSYNLQERRRIGSMTGAEQALLPRVPTDEIEAQTLATADLDLMKSHRFEDVPGVRRHLVRKNAKGSTQSGREGREPGPTPRARPRAPHKPHEVFVELNELLLDKNQEPQWRETARWIKFEEDVEEETERWGKPHVASLSFRSLLELRRTLAHGAVLLDLDQQTLPGVAHQVVEQMVISDQIKAEDRANVLRALLLKHSHPSDEKDFSFPRNISAGSLGSLLGHHHGQGAESDPHVTEPLMGGVPETRLEVERERELPPPAPPAGITRSKSKHELKLLEKIPENAEATVVLVGCVEFLSRPTMAFVRLREAVELDAVLEVPVPVRFLFLLLGPSSANMDYHEIGRSISTLMSDKQFHEAAYLADEREDLLTAINAFLDCSVVLPPSEVQGEELLRSVAHFQRQMLKKREEQGRLLPTGAGLEPKSAQDKALLQMVEAAGAAEDDPLRRTGRPFGGLIRDVRRRYPHYLSDFRDALDPQCLAAVIFIYFAALSPAITFGGLLGEKTQDLIGVSELIMSTALQGVVFCLLGAQPLLVIGFSGPLLVFEEAFFSFCSSNHLEYLVGRVWIGFWLVFLALLMVALEGSFLVRFVSRFTQEIFAFLISLIFIYETFYKLVKIFQEHPLHGCSASNSSEVDGGENMTWAGARPTLGPGNRSLAGQSGQGKPRGQPNTALLSLVLMAGTFFIAFFLRKFKNSRFFPGRIRRVIGDFGVPIAILIMVLVDYSIEDTYTQKLSVPSGFSVTAPEKRGWVINPLGEKSPFPVWMMVASLLPAILVFILIFMETQITTLIISKKERMLQKGSGFHLDLLLIVAMGGICALFGLPWLAAATVRSVTHANALTVMSKAVAPGDKPKIQEVKEQRVTGLLVALLVGLSIVIGDLLRQIPLAVLFGIFLYMGVTSLNGIQFYERLHLLLMPPKHHPDVTYVKKVRTLRMHLFTALQLLCLALLWAVMSTAASLAFPFILILTVPLRMVVLTRIFTDREMKCLDANEAEPVFDEREGVDEYNEMPMPV
# notes: Anion exchanger 2 (AE2, SLC4A2), human; A TEV protease site lies between the N-terminal Flag-8xHis tags and AE2; Solubilised in LMNG/CHS/GDN and kept in GDN; Residues 1-319, 433-498, 643-672 and 856-893 are not modelled in the structures; also called hAE2; AE2^177-1241; source: Expi293 cells, transiently transfected, purified (anti-Flag beads, SEC in GDN)
# Molecular target: the molecule itself
# Test: cryo-EM structure; hAE2 in GDN, about 10 mg/mL; samples in KNO3 pH 7.25 to 6.55, Tris-HCl pH 8.32, NaCl, 50 mM NaHCO3, or DIDS with NaHCO3; C2 symmetry (one class C1)
protein,measurement,value
B1,stoichiometry N,2
